Results on one substance are retold here after patent US20110028538.

In the data set the test system is TR4 (Nr2c2), endogenous (Mus musculus). The settings on record: ChIP with anti-TR4 in RAW264.7 cells versus IgG.

For CD36 promoter region (ChIP amplicon), the binding signal was more than 4 fold.
